Tests used:
[1] = target: CTLA-4-IgG1 fusion protein (made in-house) (human) (UniProt P16410); assay: BIAcore; CTLA-4-Ig on chip, 504.5 RU
[2] = target: CTLA-4-Ig(G4) (Repligen) (UniProt P16410); assay: competition ELISA: CTLA-4-Ig(G4) binding to coated B7.2-Ig(G1)
[3] = target: CTLA-4-Ig(G4) (Repligen) (UniProt P16410); assay: competition ELISA: CTLA-4-Ig(G4) binding to coated B7.1-Ig(G1)
[4] = target: CTLA-4-IgG1 fusion protein (made in-house) (human) (UniProt P16410); assay: BIAcore; CTLA-4-Ig on chip, 457.2 RU
[5] = target: CTLA-4-IgG1 fusion protein (made in-house) (human) (UniProt P16410); assay: BIAcore; CTLA-4-Ig on chip, 878.7 RU

Ka [1]: 2.2e+09 M⁻¹ | Kd [1]: 0.455 nM | koff [1]: 0.00043 s⁻¹ | kon [1]: 940000 M⁻¹ s⁻¹ | IC50 [2]: 1.5 nM | IC50 [3]: 3.39 nM | Ka [4]: 1.4e+09 M⁻¹ | Kd [4]: 0.721 nM | koff [4]: 0.000505 s⁻¹ | kon [4]: 700000 M⁻¹ s⁻¹ | Ka [5]: 3.9e+09 M⁻¹ | Kd [5]: 0.254 nM | koff [5]: 0.000253 s⁻¹ | kon [5]: 1e+06 M⁻¹ s⁻¹
B1: 4.10.2 antibody (antibody, from another filing, human IgG2, V domains shown)
VH: GVVQPGRSLRLSCVASGFIFSSHGIHWVRQAPGKGLEWVAVIWYDGRNKDYADSVKGRFTISRDNSKNTLYLQMNSLRAEDTAVYYCARVAPLGPLDYWGQGTLVTVSS
VL: SPGTLSLSPGERATLSCRASQSISSNFLAWYQQKPGQAPRLLIYRPSSRATGIPDSFSGSGSGTDFTLTISRLEPEDFALYYCQQYGTSPFTFGPGTKVDIKR
